{"source": "paper PMC12489471", "about": "“A multi-dentate, cooperative interaction between endo- and exo-ribonucleases within the bacterial RNA degradosome” (Nucleic Acids Research, 2025)", "key": {"PNPase": {"target": "T1, PNPase (Escherichia coli, UniProt P05055)", "T1 construct": "made in house; host or cells: E. coli Evo21(DE3)", "T1 sequence (P05055 whole entry, looked up)": "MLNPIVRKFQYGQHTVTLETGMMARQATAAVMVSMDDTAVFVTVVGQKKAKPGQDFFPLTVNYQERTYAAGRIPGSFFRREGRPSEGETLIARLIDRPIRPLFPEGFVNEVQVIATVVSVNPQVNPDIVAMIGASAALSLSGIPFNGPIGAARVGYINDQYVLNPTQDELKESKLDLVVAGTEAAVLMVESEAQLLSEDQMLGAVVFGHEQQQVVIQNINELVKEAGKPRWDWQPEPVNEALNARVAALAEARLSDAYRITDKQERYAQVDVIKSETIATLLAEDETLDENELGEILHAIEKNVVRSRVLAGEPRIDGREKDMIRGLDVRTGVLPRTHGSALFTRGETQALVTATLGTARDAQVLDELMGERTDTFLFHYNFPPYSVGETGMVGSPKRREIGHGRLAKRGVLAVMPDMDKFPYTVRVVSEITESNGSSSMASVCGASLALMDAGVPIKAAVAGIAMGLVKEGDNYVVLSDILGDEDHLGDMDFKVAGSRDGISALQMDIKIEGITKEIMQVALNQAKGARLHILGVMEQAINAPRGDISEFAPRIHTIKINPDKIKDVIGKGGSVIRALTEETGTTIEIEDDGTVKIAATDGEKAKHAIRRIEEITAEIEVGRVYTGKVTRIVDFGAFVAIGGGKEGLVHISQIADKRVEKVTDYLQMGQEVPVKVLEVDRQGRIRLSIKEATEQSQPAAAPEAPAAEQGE", "type": "binding, E. coli", "conditions": "SPR, 25°C, immobilized PNPase C-His; HEPES pH 7.2; 0, 12.5, 25 and 50 nM (point mutants); contact 120 s, dissociation 120 s; duplicates"}, "full-length PNPase": {"test_system": "full-length PNPase", "assay": "Cryo-EM of full-length PNPase:RNase E 960–1061", "type": "binding, E. coli"}}}
{"molecule": "RNase E 960 – 1061 wildtype: wildtype RNase E peptide 960–1061 (left off: His6, N-terminal, cleaved | MBP, N-terminal, cleaved | intein, C-terminal, cleaved | choline-binding domain, C-terminal, cleaved) VVETAEVVVAEPEVVAQPAAPVVAEVAAEVETVAAVEPEVTVEHNHATAPMTRAPAPEYVPEAPRHSDWQRPTFAFEGKGAAGGHTATHHASAAPARPQPVE", "values": [{"measurement": "Kd (dissociation rate constant, point mutants and wildtype)", "setting": "PNPase", "value": 0.026, "unit": "s⁻¹"}, {"measurement": "location of extra density / binding on PNPase", "setting": "full-length PNPase; cryo-EM, PNPase:RNase E 960–1061", "value": "bridging two b-strands"}, {"measurement": "interaction with KH and S1 domains of PNPase", "setting": "full-length PNPase; preliminary cryo-EM map, full-length PNPase", "value": "does not interact with the KH and S1 domains of PNPase"}]}
